Experimental data published in patent publication US20250186594A1 (BRIGHT PEAK THERAPEUTICS, published 2025).
Positions count from the first letter of the chain named. In names and notes the source's numbering stands. Values belong to the binder of their own block, whether it stands above or below them.

Assays:
[1] = target: T1, IL-18 receptor (IL-18R) on HEK-Blue IL18R reporter cells (UniProt Q13478 19-541; O95256 20-599, limits assumed); experiment: cell-based or functional assay
T1 sequence (looked up) 1: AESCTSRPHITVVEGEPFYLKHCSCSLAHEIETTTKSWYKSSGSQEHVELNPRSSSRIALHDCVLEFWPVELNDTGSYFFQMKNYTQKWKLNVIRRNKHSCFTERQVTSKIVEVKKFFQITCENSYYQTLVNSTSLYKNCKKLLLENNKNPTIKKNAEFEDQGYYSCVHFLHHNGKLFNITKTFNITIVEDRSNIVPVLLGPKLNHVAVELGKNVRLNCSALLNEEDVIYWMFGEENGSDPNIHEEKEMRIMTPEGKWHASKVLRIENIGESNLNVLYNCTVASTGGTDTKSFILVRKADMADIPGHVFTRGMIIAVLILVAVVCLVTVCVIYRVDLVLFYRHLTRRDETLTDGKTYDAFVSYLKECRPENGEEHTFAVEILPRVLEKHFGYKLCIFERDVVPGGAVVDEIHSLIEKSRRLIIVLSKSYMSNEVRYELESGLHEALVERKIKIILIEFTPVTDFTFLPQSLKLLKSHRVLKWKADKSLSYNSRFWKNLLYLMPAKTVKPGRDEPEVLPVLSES
T1 sequence (looked up) 2: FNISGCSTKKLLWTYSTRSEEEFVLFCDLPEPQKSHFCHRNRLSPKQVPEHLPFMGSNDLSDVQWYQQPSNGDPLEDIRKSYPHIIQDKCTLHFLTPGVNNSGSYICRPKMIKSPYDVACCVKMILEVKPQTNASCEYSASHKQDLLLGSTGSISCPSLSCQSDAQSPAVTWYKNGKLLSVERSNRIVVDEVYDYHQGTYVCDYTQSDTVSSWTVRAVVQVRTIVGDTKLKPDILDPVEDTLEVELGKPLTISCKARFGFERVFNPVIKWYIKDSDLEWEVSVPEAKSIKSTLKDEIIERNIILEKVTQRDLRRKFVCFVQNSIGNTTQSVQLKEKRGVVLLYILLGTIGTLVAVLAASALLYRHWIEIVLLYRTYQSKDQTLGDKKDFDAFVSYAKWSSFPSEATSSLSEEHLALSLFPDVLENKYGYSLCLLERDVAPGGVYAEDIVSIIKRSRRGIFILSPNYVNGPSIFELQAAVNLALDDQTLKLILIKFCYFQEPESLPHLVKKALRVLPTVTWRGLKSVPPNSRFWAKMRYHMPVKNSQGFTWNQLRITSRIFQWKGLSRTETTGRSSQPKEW

[2] = target: T1, IL-18 receptor (IL-18R) on HEK-Blue …; experiment: cell-based or functional assay; remark: listed apart in the source
[3] = target: T2, IL-18Rα/β heterodimer (Fc fused human IL-18Rα mixed with Fc fused human IL-18Rβ) (human, UniProt Q13478 19-329; O95256 20-356, limits assumed); experiment: SPR, Fc-IL-18Rα/β captured, heterogeneous ligand fit
T2 construct: Alpha and beta Fc fusions were mixed and pre-incubated for 30 min before capture on anti-human IgG; also called alpha/beta heterodimer IL-18 receptor; heterodimeric human IL-18 receptor alpha (CD218a) and IL-18R accessory protein (IL-18RAP/CDw218b); not shown: Fc
T2 sequence (looked up) 1: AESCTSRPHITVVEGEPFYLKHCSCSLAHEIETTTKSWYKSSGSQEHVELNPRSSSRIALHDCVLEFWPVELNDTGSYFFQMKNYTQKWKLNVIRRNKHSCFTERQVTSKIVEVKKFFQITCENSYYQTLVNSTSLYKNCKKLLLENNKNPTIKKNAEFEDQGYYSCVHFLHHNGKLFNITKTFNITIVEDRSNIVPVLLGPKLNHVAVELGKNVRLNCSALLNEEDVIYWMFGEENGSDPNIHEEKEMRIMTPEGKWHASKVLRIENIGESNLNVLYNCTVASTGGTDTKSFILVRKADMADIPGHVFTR
T2 sequence (looked up) 2: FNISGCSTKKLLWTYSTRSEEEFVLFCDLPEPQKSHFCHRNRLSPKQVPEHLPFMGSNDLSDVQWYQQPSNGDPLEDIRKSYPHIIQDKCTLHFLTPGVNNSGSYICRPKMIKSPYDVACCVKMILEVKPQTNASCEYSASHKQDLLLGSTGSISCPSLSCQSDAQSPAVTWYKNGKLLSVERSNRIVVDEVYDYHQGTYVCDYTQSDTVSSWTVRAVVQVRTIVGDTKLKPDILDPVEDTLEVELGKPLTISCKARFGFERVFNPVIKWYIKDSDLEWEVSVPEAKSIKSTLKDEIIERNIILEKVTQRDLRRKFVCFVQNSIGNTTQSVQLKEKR
Method: (§1) The interaction of the wild type and of modified IL-18 polypeptides with human IL-18 receptor subunits are measured with Surface Plasmon Resonance (SPR) technology. Anti-human IgG antibodies are bound by amine coupling onto a CM5 chip to capture 6 µg/mL of Fc fused human IL-18Rα, […] of Fc fused human IL-18Rβ, or […] of Fc fused human IL-18BP isoform a (IL-18BPa) for 30 min before capture. In other settings, […] of alpha and beta IL-18 receptors are mixed and pre-incubated for 30 min before capture of the alpha/beta heterodimer IL-18 receptor.
(§2) The kinetic binding of the IL-18 analytes are measured with a Biacore 8K instrument in two fold serial dilutions starting at […] down to 0.98 nM. Regeneration of the surface back to amine coupled anti IgG antibody is done after every concentration of analyte. To measure the protein association to the receptors, the samples are injected with a flow rate of […] for 60 s, followed by 300 s buffer only to detect the dissociation. The used running buffer is 1×PBS with 0.05% Tween20. The relative response units (RU, Y-axis) are plotted against time (s, X-axis) and analyzed in a kinetic 1:1 binding model for the monomer receptor binding and for the binding to the IL-18BP. A kinetic heterogenous ligand fit model is applied for the alpha/beta heterodimer binding.

[4] = target: T3, Fc fused human IL-18Rα (human, UniProt Q13478 19-329, limits assumed); experiment: SPR, Fc-IL-18Rα captured, 1:1 fit
T3 construct: also called IL-18Rα monomer; human IL-18 receptor alpha (CD218a); not shown: Fc
T3 sequence (looked up): T2 sequence (looked up) 1
Method: as §1, §2

- EC50 (read off the curve); SEAP reporter in HEK-Blue IL18R cells (OD 620 nM) [1]: ~3 pM
- EC50, HEK-Blue IL18R reporter [2]: 2.5 nM
B1: IL-18 variant SEQ ID NO: 241 (N-terminal 4xG, E6K, V11I, C38A, K53A, T63A, C76A, C127A) (ligand)
chain: GGGGYFGKLKSKLSIIRNLNDQVLFIDQGNRPLFEDMTDSDARDNAPRTIFIISMYADSQPRGMAVAISVKCEKISTLSAENKIISFKEMNPPDNIKDTKSDIIFFQRSVPGHDNKMQFESSSYEGYFLAAEKERDLFKLILKKEDELGDRSIMFTVQNED

- EC50 (read off the curve); SEAP reporter in HEK-Blue IL18R cells (OD 620 nM) [1]: ~2 pM
- EC50, HEK-Blue IL18R reporter [2]: 1.68 nM
B2: IL-18 variant SEQ ID NO: 242 (N-terminal G, E6K, V11I, C38A, K53A, T63A, C76A, C127A) (ligand)
chain: GYFGKLKSKLSIIRNLNDQVLFIDQGNRPLFEDMTDSDARDNAPRTIFIISMYADSQPRGMAVAISVKCEKISTLSAENKIISFKEMNPPDNIKDTKSDIIFFQRSVPGHDNKMQFESSSYEGYFLAAEKERDLFKLILKKEDELGDRSIMFTVQNED

- EC50 (read off the curve); SEAP reporter in HEK-Blue IL18R cells (OD 620 nM) [1]: ~10 pM
- EC50, HEK-Blue IL18R reporter [2]: 14 nM
B3: IL-18 variant SEQ ID NO: 244 (N-terminal G, E6K, V11I, C38A, M51G, K53A, T63A, C76A, C127A) (ligand)
chain: B2 chain with M52G

- Kd [3]: 2.2 nM
- koff [3]: 0.000594 s⁻¹
- kon [3]: 269000 M⁻¹ s⁻¹
- Kd [4]: 158 nM
- koff [4]: 0.0748 s⁻¹
- kon [4]: 475000 M⁻¹ s⁻¹
B4: IL-18 variant SEQ ID NO: 30 with 5 kDa PEG (E6K, V11I, C38A, K53A, T63A, C76A, C127A, C68-5kPEG) (ligand)
chain: YFGKLKSKLSIIRNLNDQVLFIDQGNRPLFEDMTDSDARDNAPRTIFIISMYADSQPRGMAVAISVKCEKISTLSAENKIISFKEMNPPDNIKDTKSDIIFFQRSVPGHDNKMQFESSSYEGYFLAAEKERDLFKLILKKEDELGDRSIMFTVQNED
modifications: 5 kDa PEG on Cys 68 (C68-5kPEG)
notes: also called 30 + PEG5

- EC50 (read off the curve); SEAP reporter in HEK-Blue IL18R cells (OD 620 nM) [1]: ~4 pM
- EC50, HEK-Blue IL18R reporter [2]: 0.8 nM
B5: IL-18 variant SEQ ID NO: 207 (V11I, C38A, M51G, K53A, C76A, C127A) (ligand)
chain: B4 chain with K6E, M51G, A63T

- EC50 (read off the curve); SEAP reporter in HEK-Blue IL18R cells (OD 620 nM) [1]: ~0.1 pM
- EC50, HEK-Blue IL18R reporter [2]: 0.1 nM
B6: IL-18 variant SEQ ID NO: 239 (E6K, V11I, C38A, M51G, K53A, T63A, C76A, C127A) (ligand)
chain: B4 chain with M51G

- Kd [3]: 5.49 nM
- koff [3]: 0.000637 s⁻¹
- kon [3]: 116000 M⁻¹ s⁻¹
- Kd [4]: 379 nM
- koff [4]: 0.0805 s⁻¹
- kon [4]: 213000 M⁻¹ s⁻¹
B7: IL-18 variant SEQ ID NO: 30 with 20 kDa PEG (E6K, V11I, C38A, K53A, T63A, C76A, C127A, C68-20kPEG) (ligand)
chain: B4 chain
modifications: 20 kDa PEG on Cys 68 (C68-20kPEG)
notes: also called 30 + PEG20

- Kd [3]: 13.3 nM
- koff [3]: 0.000789 s⁻¹
- kon [3]: 68300 M⁻¹ s⁻¹
- Kd [4]: 345 nM
- koff [4]: 0.0195 s⁻¹
- kon [4]: 66300 M⁻¹ s⁻¹
B8: IL-18 variant SEQ ID NO: 60 with 30 kDa PEG (E6K, C38Q, K53A, C68-30kPEG) (ligand)
chain: B4 chain with I11V, A38Q, A63T, A76C, A127C
modifications: 30 kDa PEG on Cys 68 (C68-30kPEG)
notes: also called 60 + PEG

- Kd [3]: 0.49 nM
- koff [3]: 0.000589 s⁻¹
- kon [3]: 1.21e+06 M⁻¹ s⁻¹
- Kd [4]: 9.85 nM
- koff [4]: 0.0102 s⁻¹
- kon [4]: 1.03e+06 M⁻¹ s⁻¹
- EC50, HEK-Blue IL18R reporter [2]: 0.203 nM
B9: IL-18 variant SEQ ID NO: 60 (E6K, C38Q, K53A) (ligand)
chain: B4 chain with I11V, A38Q, A63T, A76C, A127C
